[ ]: non-standard residue; d: D form. pGlu = O=C1CC[C@@H](C(=O)O)N1
Legend:
[1] = molecular target: KLII-2 antiserum against GnRH-II; experiment: RIA cross-reactivity with antiserum KLII-2 (relative to GnRH-II)
[2] = molecular target: aCII6 polyclonal antibody against GnRH-II; experiment: RIA cross-reactivity with antibody aCII6 (relative to GnRH-II)

- cross-reactivity [1]: 0.003%
- cross-reactivity [2]: 0.013%
B1: Salmon GnRH (sGnRH) (peptide)
peptide: [pGlu]HWSYGWLPG-NH2
SMILES: CC(C)C[C@H](NC(=O)[C@H](Cc1c[nH]c2ccccc12)NC(=O)CNC(=O)[C@H](Cc1ccc(O)cc1)NC(=O)[C@H](CO)NC(=O)[C@H](Cc1c[nH]c2ccccc12)NC(=O)[C@H](Cc1c[nH]cn1)NC(=O)[C@@H]1CCC(=O)N1)C(=O)N1CCC[C@H]1C(=O)NCC(N)=O

— patent publication US20050158309A1
